# Results reported in paper PMC3480987 (Molecular microbiology, 2012).
# Where two headings read alike, the source gives them in different places.
# What was measured:
# [1] = biological target: the molecule itself; test: sucrose density gradient centrifugation + SEC
# BLI [2] = biological target: the molecule itself; test: BLI
# BLI [3] = biological target: the molecule itself; test: BLI; remark: listed apart in the source
Protein,stoichiometry N [1],Kd (BLI [2]),Kd (BLI [3])
"Thioredoxin-UgtP fusion protein (wild type) (enzyme, B. subtilis, UniProt P54166 1-382, looked up, biotin on the copy immobilised on the biosensor (site not stated)) MNTNKRVLILTANYGNGHVQVAKTLYEQCVRLGFQHVTVSNLYQESNPIVSEVTQYLYLKSFSIGKQFYRLFYYGVDKIYNKRKFNIYFKMGNKRLGELVDEHQPDIIINTFPMIVVPEYRRRTGRVIPTFNVMTDFCLHKIWVHENVDKYYVATDYVKEKLLEIGTHPSNVKITGIPIRPQFEESMPVGPIYKKYNLSPNKKVLLIMAGAHGVLKNVKELCENLVKDDQVQVVVVCGKNTALKESLSALEAENGDKLKVLGYVERIDELFRITDCMITKPGGITLTEATAIGVPVILYKPVPGQEKENANFFEDRGAAIVVNRHEEILESVTSLLADEDTLHRMKKNIKDLHLANSSEVILEDILKESEMMTAKQKAKVLS",~8.8 monomers,69 nM,17 nM
"UgtP (F112A V117A E306A N309A) (enzyme, B. subtilis, UniProt P54166 1-382, looked up, biotin on the copy immobilised on the biosensor (site not stated)) MNTNKRVLILTANYGNGHVQVAKTLYEQCVRLGFQHVTVSNLYQESNPIVSEVTQYLYLKSFSIGKQFYRLFYYGVDKIYNKRKFNIYFKMGNKRLGELVDEHQPDIIINTAPMIVAPEYRRRTGRVIPTFNVMTDFCLHKIWVHENVDKYYVATDYVKEKLLEIGTHPSNVKITGIPIRPQFEESMPVGPIYKKYNLSPNKKVLLIMAGAHGVLKNVKELCENLVKDDQVQVVVVCGKNTALKESLSALEAENGDKLKVLGYVERIDELFRITDCMITKPGGITLTEATAIGVPVILYKPVPGQAKEAANFFEDRGAAIVVNRHEEILESVTSLLADEDTLHRMKKNIKDLHLANSSEVILEDILKESEMMTAKQKAKVLS",,21 nM,16 nM
